In article PMC6943190:

How the values were obtained:
[1] = biological target: C403-SecA (Escherichia coli) (UniProt P10408); assay: cross-linking
[2] = biological target: C11+C661-SecA (Escherichia coli) (UniProt P10408); assay: cross-linking

Substance: C403-SecA (from UniProt P10408 1-901) (enzyme)
- stoichiometry N [1]: 2

Substance: C11+C661-SecA (from UniProt P10408 1-901) (enzyme)
- stoichiometry N [2]: 2
